Data from patent publication US20090227777A1.

Molecular target: ovalbumin-hippuric acid conjugate (OVA-HA) (UniProt P01012)
Assay: indirect ELISA on hippuric acid antigen, purified soluble scFv-E tag at 10-fold dilution, rabbit anti-E tag and goat anti-rabbit IgG-HRP detection

Chain of UniProt P01012 (P01012 2-386 limits assumed): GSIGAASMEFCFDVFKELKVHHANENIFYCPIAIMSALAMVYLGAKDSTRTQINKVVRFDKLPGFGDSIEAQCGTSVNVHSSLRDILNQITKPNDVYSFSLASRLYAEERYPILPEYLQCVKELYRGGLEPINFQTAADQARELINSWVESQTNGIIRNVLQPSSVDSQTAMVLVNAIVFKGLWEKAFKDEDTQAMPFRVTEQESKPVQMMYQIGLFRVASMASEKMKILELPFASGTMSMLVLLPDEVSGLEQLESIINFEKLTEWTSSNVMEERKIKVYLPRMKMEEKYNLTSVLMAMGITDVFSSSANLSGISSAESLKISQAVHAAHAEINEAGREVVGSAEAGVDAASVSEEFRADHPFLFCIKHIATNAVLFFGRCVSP

B1: soluble single chain variable fragment scFv-E tag derived from 4D31G111B7 (scFv)
scFv: AAQPAEVMLVESGASVKISCKASGYSFTGYYMHWVKQSHVKTLEWVGRITPYNGATNYNQNFKDKASLTVDKSSSTAYMEFHSLTSEDSAVYYCVRMYADVWGAGTSVTVSSVKTTPPSVYPLAPGGGGSGGGGSGGGGSEIVLTQSPSSLSASLGESVTLACRGASQDIGGRLNWLQQEADGTIKRLIYATSSLDSGVPKRFSGSRSGSDYSLTISSLESEDFVDYYCLQYDRSPYTFGGGTKLEIKRGDAAPTVAA
antibody titer: 0.516
